# Laboratory results published in patent US20110263454A1, “Methods of Identifying Functional Characteristics of Promoters, Transcription Modifying Proteins and Transcription Modulating Agents” (Salk Institute for Biological Studies, priority 2008, published 2011).
# B1: RVRb: Rev-Erb β (NR1D2, alternative name RVR), cDNA driver (protein, UniProt Q14995 1-579, looked up)
# Nuclear receptor subfamily 1 …: MEVNAGGVIAYISSSSSASSPASCHSEGSENSFQSSSSSVPSSPNSSNSDTNGNPKNGDLANIEGILKNDRIDCSMKTSKSSAPGMTKSHSGVTKFSGMVLLCKVCGDVASGFHYGVHACEGCKGFFRRSIQQNIQYKKCLKNENCSIMRMNRNRCQQCRFKKCLSVGMSRDAVRFGRIPKREKQRMLIEMQSAMKTMMNSQFSGHLQNDTLVEHHEQTALPAQEQLRPKPQLEQENIKSSSPPSSDFAKEEVIGMVTRAHKDTFMYNQEQQENSAESMQPQRGERIPKNMEQYNLNHDHCGNGLSSHFPCSESQQHLNGQFKGRNIMHYPNGHAICIANGHCMNFSNAYTQRVCDRVPIDGFSQNENKNSYLCNTGGRMHLVCPMSKSPYVDPHKSGHEIWEEFSMSFTPAVKEVVEFAKRIPGFRDLSQHDQVNLLKAGTFEVLMVRFASLFDAKERTVTFLSGKKYSVDDLHSMGAGDLLNSMFEFSEKLNALQLSDEEMSLFTAVVLVSADRSGIENVNSVEALQETLIRALRTLIMKNHPNEASIFTKLLLKLPDLRSLNNMHSEELLAFKVHP
# B2: RVRa: Rev-Erb α (NR1D1), cDNA driver (protein, UniProt P20393 1-614, looked up)
# Nuclear receptor subfamily 1 …: MTTLDSNNNTGGVITYIGSSGSSPSRTSPESLYSDNSNGSFQSLTQGCPTYFPPSPTGSLTQDPARSFGSIPPSLSDDGSPSSSSSSSSSSSSFYNGSPPGSLQVAMEDSSRVSPSKSTSNITKLNGMVLLCKVCGDVASGFHYGVHACEGCKGFFRRSIQQNIQYKRCLKNENCSIVRINRNRCQQCRFKKCLSVGMSRDAVRFGRIPKREKQRMLAEMQSAMNLANNQLSSQCPLETSPTQHPTPGPMGPSPPPAPVPSPLVGFSQFPQQLTPPRSPSPEPTVEDVISQVARAHREIFTYAHDKLGSSPGNFNANHASGSPPATTPHRWENQGCPPAPNDNNTLAAQRHNEALNGLRQAPSSYPPTWPPGPAHHSCHQSNSNGHRLCPTHVYAAPEGKAPANSPRQGNSKNVLLACPMNMYPHGRSGRTVQEIWEDFSMSFTPAVREVVEFAKHIPGFRDLSQHDQVTLLKAGTFEVLMVRFASLFNVKDQTVMFLSRTTYSLQELGAMGMGDLLSAMFDFSEKLNSLALTEEELGLFTAVVLVSADRSGMENSASVEQLQETLLRALRALVLKNRPLETSRFTKLLLKLPDLRTLNNMHSEKLLSFRVDAQ
# B3: RARa: Retinoic acid receptor α (NR1B1), nuclear hormone receptor cDNA driver (protein, UniProt P10276 1-462, looked up)
# Retinoic acid receptor alpha: MASNSSSCPTPGGGHLNGYPVPPYAFFFPPMLGGLSPPGALTTLQHQLPVSGYSTPSPATIETQSSSSEEIVPSPPSPPPLPRIYKPCFVCQDKSSGYHYGVSACEGCKGFFRRSIQKNMVYTCHRDKNCIINKVTRNRCQYCRLQKCFEVGMSKESVRNDRNKKKKEVPKPECSESYTLTPEVGELIEKVRKAHQETFPALCQLGKYTTNNSSEQRVSLDIDLWDKFSELSTKCIIKTVEFAKQLPGFTTLTIADQITLLKAACLDILILRICTRYTPEQDTMTFSDGLTLNRTQMHNAGFGPLTDLVFAFANQLLPLEMDDAETGLLSAICLICGDRQDLEQPDRVDMLQEPLLEALKVYVRKRRPSRPHMFPKMLMKITDLRSISAKGAERVITLKMEIPGSMPPLIQEMLENSEGLDTLSGQPGGGGRDGGGLAPPPGSCSPSLSPSSNRSSPATHSP
# B4: RARb: Retinoic acid receptor β (NR1B2), nuclear hormone receptor cDNA driver (protein, UniProt P10826 1-455, looked up)
# Retinoic acid receptor beta: MTTSGHACPVPAVNGHMTHYPATPYPLLFPPVIGGLSLPPLHGLHGHPPPSGCSTPSPATIETQSTSSEELVPSPPSPLPPPRVYKPCFVCQDKSSGYHYGVSACEGCKGFFRRSIQKNMIYTCHRDKNCVINKVTRNRCQYCRLQKCFEVGMSKESVRNDRNKKKKETSKQECTESYEMTAELDDLTEKIRKAHQETFPSLCQLGKYTTNSSADHRVRLDLGLWDKFSELATKCIIKIVEFAKRLPGFTGLTIADQITLLKAACLDILILRICTRYTPEQDTMTFSDGLTLNRTQMHNAGFGPLTDLVFTFANQLLPLEMDDTETGLLSAICLICGDRQDLEEPTKVDKLQEPLLEALKIYIRKRRPSKPHMFPKILMKITDLRSISAKGAERVITLKMEIPGSMPPLIQEMLENSEGHEPLTPSSSGNTAEHSPSISPSSVENSGVSQSPLVQ
# B5: RARg: Retinoic acid receptor γ (NR1B3), nuclear hormone receptor cDNA driver (protein, UniProt P13631 1-454, looked up)
# Retinoic acid receptor gamma: MATNKERLFAAGALGPGSGYPGAGFPFAFPGALRGSPPFEMLSPSFRGLGQPDLPKEMASLSVETQSTSSEEMVPSSPSPPPPPRVYKPCFVCNDKSSGYHYGVSSCEGCKGFFRRSIQKNMVYTCHRDKNCIINKVTRNRCQYCRLQKCFEVGMSKEAVRNDRNKKKKEVKEEGSPDSYELSPQLEELITKVSKAHQETFPSLCQLGKYTTNSSADHRVQLDLGLWDKFSELATKCIIKIVEFAKRLPGFTGLSIADQITLLKAACLDILMLRICTRYTPEQDTMTFSDGLTLNRTQMHNAGFGPLTDLVFAFAGQLLPLEMDDTETGLLSAICLICGDRMDLEEPEKVDKLQEPLLEALRLYARRRRPSQPYMFPRMLMKITDLRGISTKGAERAITLKMEIPGPMPPLIREMLENPEMFEDDSSQPGPHPNASSEDEVPGGQGKGGLKSPA
# Key:
# hPOMC promoter = assay: NHR-promoter luciferase screen, hPOMC promoter; format: cell-based, human; conditions: for Luc. act., normalized to lacZ / Normalized Luc. act., normalized to control: hPOMC promoter, HR/ligand component; for hPOMC promoter reporter activity: transcription factor +/- ligand, control = 1.00
# In short: (§1)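 CV-1 cells were co-transfected with 50 ng NHR (homodimer or NHR/RXR heterodimer), 100 ng promoter-luciferase construct and 50 ng LacZ. Luciferase was normalized to LacZ and to a no-NHR/no-ligand control.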
# mAgrp promoter = assay: NHR-promoter luciferase screen, mAgrp promoter; format: cell-based, mouse; conditions: for Results of assays of transcription factor (+/- ligand) with mAgrp: Table 6d, luciferase activity relative to control (control = 1.00); for Luc. act., normalized to lacZ / Normalized Luc. act., normalized to control: mAgrp promoter, HR component with or without ligand; for Normalized Luc. act., normalized to control: relative to control
# In short: as §1
# mDio1 promoter = assay: NHR-promoter luciferase screen, mDio1 promoter; format: cell-based, mouse; conditions: for Luc. act., normalized to lacZ / Normalized Luc. act., normalized to control: Dio1, HR component without or with its ligand; for mDio1 promoter reporter activity: transcription factor +/- ligand, control = 1.00
# In short: as §1
# mADRP promoter = assay: NHR-promoter luciferase screen, mADRP promoter; format: cell-based, mouse; conditions: for Luc. act., normalized to lacZ / Normalized Luc. act., normalized to control: ADRP promoter, HR/ligand component; for mADRP promoter reporter activity: transcription factor +/- ligand, control = 1.00
# In short: as §1
# hMDR1 promoter = assay: NHR-promoter luciferase screen, hMDR1 promoter; format: cell-based, human; conditions: for Luc. act., normalized to lacZ / Normalized Luc. act., normalized to control: MDR1 promoter, HR/ligand component; for hMDR1 promoter reporter activity: transcription factor +/- ligand, control = 1.00
# In short: as §1
# hTNFa promoter = assay: NHR-promoter luciferase screen, hTNFa promoter; format: cell-based, human; conditions: for Luc. act., normalized to lacZ / Normalized Luc. act., normalized to control: TNFa promoter, HR component without or with ligand; for hTNFa promoter reporter activity: transcription factor +/- ligand, control = 1.00
# In short: as §1
Molecule,"Luc. act., normalized to lacZ (hPOMC promoter)","Normalized Luc. act., normalized to control (hPOMC promoter)",hPOMC promoter reporter activity (hPOMC promoter),Results of assays of transcription factor (+/- ligand) with mAgrp (mAgrp promoter),"Luc. act., normalized to lacZ (mAgrp promoter)","Normalized Luc. act., normalized to control (mAgrp promoter)","Luc. act., normalized to lacZ (mDio1 promoter)","Normalized Luc. act., normalized to control (mDio1 promoter)",mDio1 promoter reporter activity (mDio1 promoter),"Luc. act., normalized to lacZ (mADRP promoter)","Normalized Luc. act., normalized to control (mADRP promoter)",mADRP promoter reporter activity (mADRP promoter),"Luc. act., normalized to lacZ (hMDR1 promoter)","Normalized Luc. act., normalized to control (hMDR1 promoter)",hMDR1 promoter reporter activity (hMDR1 promoter),"Luc. act., normalized to lacZ (hTNFa promoter)","Normalized Luc. act., normalized to control (hTNFa promoter)",hTNFa promoter reporter activity (hTNFa promoter)
B1,2.8,0.7,0.66,1.05,41.7,1.1,8.8,2.0,1.97,353.2,0.7,0.71,0.3,0.9,0.94,1017.6,1.0,1.04
B2,2.3,0.5,0.53,1.21,47.9,1.2,5.7,1.3,1.27,522.2,1.0,1.05,0.2,0.6,0.64,1069.4,1.1,1.09
B3,3.2,0.7,0.74,2.05,81.1,2.0,7.4,1.7,1.66,628.8,1.3,1.26,0.2,0.7,0.67,1363.2,1.4,1.39
B4,4.3,1.0,1.00,2.27,90.2,2.3,6.8,1.5,1.54,799.4,1.6,1.61,0.3,1.0,0.97,1854.5,1.9,1.89
B5,3.7,0.9,0.87,2.06,81.9,2.1,7.2,1.6,1.61,765.4,1.5,1.54,0.3,0.8,0.85,1458.6,1.5,1.48
